The text below walks through data of paper PMC3201810.

In the test the target is Bacillus cereus ChbC (EIIC component of the diacetylchitobiose phosphotransferase system) (Bacillus cereus). Briefly: SEC-MALS. A general note: SEC sorts molecules by how far they enter the pores of the column.

On to “Bacillus cereus ChbC (EIIC component of the diacetylchitobiose phosphotransferase system) (natural protein)”, for which the stoichiometry N turned out to be 2.

Usually stoichiometry N stands for the number of molecules, sites or subunits per partner or assembly.
